Data taken from patent publication US20250163183A1 (COAGULANT THERAPEUTICS, published 2025).

T1: FVIIa (UniProt P08709 61-466)
T1 construct: also called factor VIIa
T1 sequence (looked up): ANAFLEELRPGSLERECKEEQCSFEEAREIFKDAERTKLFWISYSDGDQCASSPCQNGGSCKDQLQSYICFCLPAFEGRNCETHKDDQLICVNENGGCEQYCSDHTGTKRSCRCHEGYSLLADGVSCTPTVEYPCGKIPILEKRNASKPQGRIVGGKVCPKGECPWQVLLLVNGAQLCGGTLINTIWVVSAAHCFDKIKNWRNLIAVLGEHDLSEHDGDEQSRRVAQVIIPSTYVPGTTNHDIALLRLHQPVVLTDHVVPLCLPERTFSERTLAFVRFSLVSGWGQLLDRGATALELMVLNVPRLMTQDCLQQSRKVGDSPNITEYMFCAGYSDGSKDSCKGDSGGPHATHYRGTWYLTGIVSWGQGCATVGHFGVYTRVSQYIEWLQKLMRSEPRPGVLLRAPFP


Columns and labels:
[1] = biological target: T2, FXIa (UniProt P03951 19-625); assay: ELISA, FXIa coated at 10 µg/mL, HRP-anti-V5, n=3
T2 construct: also called factor XIa
T2 sequence (P03951 19-625 limits assumed): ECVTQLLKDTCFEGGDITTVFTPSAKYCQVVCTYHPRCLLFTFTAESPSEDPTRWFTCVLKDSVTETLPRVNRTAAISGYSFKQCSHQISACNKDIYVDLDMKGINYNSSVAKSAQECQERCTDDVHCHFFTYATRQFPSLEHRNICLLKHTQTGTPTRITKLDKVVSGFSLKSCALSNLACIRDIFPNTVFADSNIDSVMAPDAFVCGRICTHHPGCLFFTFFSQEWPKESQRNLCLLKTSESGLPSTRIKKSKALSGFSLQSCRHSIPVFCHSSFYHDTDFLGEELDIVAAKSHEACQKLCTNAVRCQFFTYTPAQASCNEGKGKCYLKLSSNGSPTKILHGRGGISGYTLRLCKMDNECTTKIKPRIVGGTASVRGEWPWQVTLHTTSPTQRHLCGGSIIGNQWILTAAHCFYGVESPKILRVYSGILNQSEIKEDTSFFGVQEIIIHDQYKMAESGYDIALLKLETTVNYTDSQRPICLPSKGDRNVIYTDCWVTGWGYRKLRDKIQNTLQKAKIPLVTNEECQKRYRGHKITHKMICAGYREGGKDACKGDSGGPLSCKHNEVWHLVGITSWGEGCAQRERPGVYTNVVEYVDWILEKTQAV

[2] = biological target: T1, FVIIa; assay: ELISA, FVIIa coated at 10 µg/mL, HRP-anti-V5, n=3
[3] = biological target: T3, human APC-PPACK (active site-blocked APC) (human, UniProt P04070 43-461, active site bound by the tripeptide inhibitor Phe-Pro-Arg-chloromethylketone (PPACK)); assay: ELISA
T3 construct: Bought (Haematologic Technologies)
T3 sequence (P04070 other isoform, or with tags, fused parts or gaps): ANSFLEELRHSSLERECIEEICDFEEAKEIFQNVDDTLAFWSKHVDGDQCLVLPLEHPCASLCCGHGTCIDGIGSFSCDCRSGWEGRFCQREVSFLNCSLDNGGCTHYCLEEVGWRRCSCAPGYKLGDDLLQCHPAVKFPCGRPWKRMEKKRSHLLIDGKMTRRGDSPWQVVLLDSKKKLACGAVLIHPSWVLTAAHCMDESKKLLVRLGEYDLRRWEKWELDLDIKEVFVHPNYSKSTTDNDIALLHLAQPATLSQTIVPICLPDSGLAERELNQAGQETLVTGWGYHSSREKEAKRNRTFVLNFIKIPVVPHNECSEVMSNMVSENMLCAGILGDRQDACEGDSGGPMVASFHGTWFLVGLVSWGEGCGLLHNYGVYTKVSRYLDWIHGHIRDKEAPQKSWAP

[4] = biological target: T4, human protein C (PC) zymogen (human, UniProt P04070 43-197; P04070 200-461); assay: ELISA
T4 construct: Bought
T4 sequence (P04070 43-197, chain 1 of 2): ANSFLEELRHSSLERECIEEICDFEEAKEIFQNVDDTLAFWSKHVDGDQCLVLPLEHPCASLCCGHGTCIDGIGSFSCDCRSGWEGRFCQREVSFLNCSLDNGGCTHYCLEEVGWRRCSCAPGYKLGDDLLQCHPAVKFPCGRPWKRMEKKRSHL
T4 sequence (P04070 200-461, chain 2 of 2): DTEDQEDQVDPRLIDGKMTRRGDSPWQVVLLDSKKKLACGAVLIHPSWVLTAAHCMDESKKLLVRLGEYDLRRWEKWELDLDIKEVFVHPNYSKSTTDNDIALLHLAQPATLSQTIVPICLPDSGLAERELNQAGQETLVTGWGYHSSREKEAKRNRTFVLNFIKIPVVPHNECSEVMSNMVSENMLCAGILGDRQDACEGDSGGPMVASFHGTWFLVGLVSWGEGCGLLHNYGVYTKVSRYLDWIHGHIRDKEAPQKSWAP

[5] = biological target: T4, human protein C (PC) zymogen; assay: ELISA screen, PC-coated wells, OD450, n=2

| binding result [1] | binding result [2] | binding result [3] | binding result [4] | binding result [5] | Binder |
| --- | --- | --- | --- | --- | --- |
| no binding (tested: 2 µg/mL) | no binding (tested: 2 µg/mL) | – | – | – | LP14 (SR16983-R3-P4-A06) (VHH, not shown: small tags and cut ends, Llama VHH purified from E. coli periplasm) VHH: QLQLVESGGGLVQAGGSLRLSCTASGSTSSIVIISWYRQAPGEQRDLVATINNGGDVDVADFVKGRFTISRDNAKNAVYLQMNNLKPEDTAVYYCSARTPSLRVTWFWGQGTQVTVSS |
| no binding (tested: 2 µg/mL) | no binding (tested: 2 µg/mL) | – | – | – | LP17 (SR16983-R4-P1-A09) (VHH, not shown: small tags and cut ends, Llama VHH purified from E. coli periplasm) VHH: QLQLVESGGGLVQPGGSLRLSCAASGTTSSLNLMGWYRQAPGKKRESVAHMTSDGRTDYVDSVKGRFTISRDNSKNTVYLQMNNLKPEDTAVYICYANPFLGSWSNYWGQGTQVTVSS |
| – | – | binds | no binding | – | SR16983-R3-P4-G01 (VHH) VHH: QLQLVESGGGLVQAGGSLRLSCAASGRTFVGSYVMGWFRQAPGKEREFVAASSRSTGNTVYLDSVKGRFTISRDDAKNMLYLQMNSLKPEDTAVYYCATRASINYNYANWPYWGQGTQVTVSS |
| – | – | binds | no binding | – | SR16983-R3P2B6 (VHH) VHH: QLQLVESGGGLVQAGGSLRLACAASGFSFDDYAIGWFRQAPGKEREGVSCITSDGSTYYADSVKGRFTISSDNAKNTVYLQMNILKPEDTAVYYCARGGLLLPKPELFEYWGQGTQVTVSS |
| – | – | binds | no binding | – | SR16983-R3P2E7 (VHH) VHH: QLQLVESGGGLVQAGGSLRLSCVASGTTFTIEDIGWYRLAPGKQRELVAIISGGNTNYADSVKGRFTISRDNAKNTVFLQMNSLKPEDTAVYYCNARTKATAKWGRGIQVTVSS |
| – | – | binds | no binding | – | SR16983-R2-P4-B05 (VHH) VHH: QVQLVESGGGLVQAGGSLRLSCAASGRVFGTYVMGWFRQAPGKEREFVAAFSRSTGHITYADSVKGRFTISRDDAKNTLYLQMNSLKPEDTAVYYCATRASINYNYANWPYWGQGTQVTVSS |
| – | – | binds | no binding | – | SR16983-R3P2G9 (VHH) VHH: QVQLVESGGGLVQPGGSLRLSCAASGRTFGSYVMGWFRQAPGKEREFVAAASRSTGNTVYPDSVKGRFTISRDDAKNTLYLQMNSLKPEDTAVYYCAARASINYNYANWPYWGQGTQVTVSS |
| – | – | binds | no binding | – | SR16983-R2P1C10 (VHH) VHH: QLQLVESGGGLVQPGGSLRLSCAASGRIFGSYVMGWFRQAPGKEHEFVAASSRSTGNTVYLDSVKGRFTISRDDAKNTLYLQMNSLKPEDTAVYYCATRASINYNYANWPYRGQGTQVTVSS |
| – | – | binds | no binding | – | SR16983-R2-P4-G01 (VHH) VHH: QLQLVESGGGLVQAGGSLRLSCAASGRTVGSYVMGWFRQAPGKEREFLAANSRSTGNTVYADSVKGRFTISRDDAKNTLYLQMNSLKPEDTAVYYCATRASINYNYANWPYWGQGTQVNVSS |
| – | – | binds | no binding | – | SR16983-R3P2A9 (VHH) VHH: QVQLVESGGGLVQAGGSLRLSCAASGRTVGSYVMGWFRQAPGKERELLAASSRSTGNTVYADSVKGRFTISRDDAKNTVFLQMNSLKPEDTAVYYCAARASINYNYANWPYWGQGTQVTVSP |
| – | – | binds | no binding | – | SR16983-R3-P4-E04 (VHH) VHH: QVQLVESGGGLVQAGGSLRLSCAASGRTVGSYAVGWFRQAPGKEREFLAASSRSTGNTVYADSVKGRFTISRDDAKNTLYLQMNSLKPEDTAVYYCATRASINYNYANWPYWGQGTQVTVSS |
| – | – | binds | no binding | – | SR16983-R2P1C11 (VHH) VHH: QLQLVESGGGLVQSGGSLRLSCTASGSTVRVTAGGWYRQAPGNERELVADIDNGGRPTYADSVKGRFTISRDNAKNAVDLQMNNLKPEDTAVYYCFVIAIPDSAPRPRAYWGQGTQVTVSS |
| – | – | binds | no binding | – | SR16983-R2-P2-G09 (VHH) VHH: QLQLVESGGGLVQAGGSLRLSCVASGTTFSIEETYWYRLAPGKQRELVAVISGGGNTNYADSVKGRFTISRDNAKNTVYLQMNSLKPEDTAVYYCSARTIATVKWGQGIQVTVSS |
| – | – | binds | – | no binding | SR16983-R2-P2-G01 (VHH) VHH: EVQLVESGGGLVQAGESLRLSCVVSGSRFRISGMGWYRQAPEKQRELVAAITRGGSTNYSDSVKGRFTISSDNAKNTVYLQMNSLKPDDTDVYYCAATVLDIPTMSTDDYWGQGTQVTVSS |
| – | – | binds | no binding | – | SR16983-R2-P4-G02 (VHH) VHH: QLQLVESGGGLVQAGGSLRLSCAASGTTFSFVYMGWYRQAPGNQRDLVARISSDGSTNYADSVKGRFTISGDNAKNTVYLQMNSLRPEDTARYYCFYNGHLNKWGQGTQVTVSS |
| – | – | binds | no binding | – | SR16983-R3-P5-A11 (VHH) VHH: QVQLVESGGGLVQAGGSLGLSCAASGTTFSFVYMGWYRQAPGNQRDLVARISSDGSTNYADSVKGRFTISGDNAKNTVYLQMNNLKPEDTARYYCFYNGHVNKWGQGTQVTVSS |
| – | – | binds | no binding | – | SR16983-R2P1F04 (VHH) VHH: QLQLVESGGGLVQAGGSLRLSCAASRTTFSFNYMGWYRQAPGNQRDLVARISSGGITNYADSVKGRFTISGDNAKNTVYLQMNSLKPEDTARYYCFYNGHLNKWGQGTQVTVSS |
| no binding (tested: 2 µg/mL) | no binding (tested: 2 µg/mL) | – | – | – | LP21 (SR16983-R4-P1-D01) (VHH, not shown: small tags and cut ends, Llama VHH purified from E. coli periplasm) VHH: QLQLVESGGGLVQAGESLRLSCVLSGSTFGRNVITWYRQPPGKQREFIAMITTSGSTRYADSVKGRFTMSRDTAKNTAFLQMSNLKLEDTAVYYCWTAIAGQGEYWGQGTQVTVSS |
| – | – | binds | no binding | – | SR16983-R3-P2-A08 (VHH) VHH: QVQLVESGGGLVQAGGSLRLSCAASGRTSSNYNMGWFRQAPGKEREFVAAIPWTGSTTYYADPVKGRFTISRDSTKNTGDLQMNSLKPEDTAVYYCALGRRENYYALLQQRGYDYWGQGTQVTVSS |
| no binding (tested: 2 µg/mL) | no binding (tested: 2 µg/mL) | – | – | – | LP6 (SR16983-R3-P2-F11) (VHH, not shown: small tags and cut ends, Llama VHH purified from E. coli periplasm) VHH: QLQLVESGGGLVQPGGSLRLSCAASGSIGRLNVMGWFRQAPGKQRELVAVISSDNKKDYADSVQGRFTISRDNSKNTVYLQMNSLKPEDTAVYYCNVRWTMGGNYWGQGTQVTVSS |
| – | – | binds | no binding | – | SR16983-R2-P2-D05 (VHH) VHH: QVQLVESGGGLVQPGGSLTLSCAASGTIESINDMGWYRQAPGKQRELVAAITSGGSTNYADSVKGRFTISRDNAKNTVYLQMNSLKPEDTAVYYCNAEVKRHYYYDSAGHRYWGQGTQVTVSS |
| – | – | binds | no binding | – | SR16983-R3P2E05 (VHH) VHH: QVQLVESGGGLVQAGGSLRLSCTTSGSTFSITAGGWYRQAPGEQRELVADVANDGSTSYAESVKGRFTISRDNAKNIVELQMSSLELEDTAVYVCFVVGISDSTPRPRAYWGQGTQVTVAS |
| no binding (tested: 2 µg/mL) | no binding (tested: 2 µg/mL) | – | – | – | LP16 (SR16983-R4-P1-A04) (VHH, not shown: small tags and cut ends, Llama VHH purified from E. coli periplasm) VHH: QLQLVESGGGLVEAGGSLRLSCAVSGTTFSANTMVWHRQAPGKQREWVARISSSGTTNYADSVRGRFSLSRGNAKNTVYLQMNSLKPDDTAVYYCNAILPSRSIWGRGTQVTVSS |
| – | – | binds | no binding | – | SR16983-R2-P2-D08 (VHH) VHH: QLQLVESGGGLVQAGDSLRLSCALSGLAASTYAMAWFRQAPGKEREFVSVIDWKGDSTTANSVKGRFTISRDHGKNTVYLQMNSLQPEDTALYYCAARGSPGYVAKLYAHWGRGTQVTVSS |
| – | – | binds | no binding | – | SR16983-R3-P4-A08 (VHH) VHH: QLQLVESGGGLVQAGDSLRLSCVFSGLTASTYAMAWFRQAPGKEREFVSVIDWKGDTTYANSVKGRFTISRDNGNKTVYLQMNSLQPEDTALYYCAARGSPGYVARLYAHWGRGTQVTVSS |
| – | – | binds | no binding | – | SR16983-R3-P3-F01 (VHH) VHH: EVQLVESGGGLVQAGDSLRLSCARSGLTASTYAMAWFRQAPGKEREFVSVIDWKGDTTYANSVKGRFTISRDNGKNTVYLQMNSLQPEDTALYYCAARGSPAYVARLYAYWGRGTQVTVSS |
